Measurements from paper PMC2752815.

Molecular target: mouse βB1-crystallin (mouse) (UniProt Q9WVJ5)
Test: AUC

Kd: 1.55 µM
stoichiometry N: 2
Substance: mouse βB1-crystallin (from UniProt Q9WVJ5 1-250) (natural protein)
